For two substances, Kd results are on record in patent publication US20090118127A1.

The target of this assay is extra-cellular domain of recombinantly expressed RSV F protein (human Respiratory Syncytial Virus). Description: Biacore (SPR). (In SPR one partner is held on a chip, and binding of the other changes the refractive index at the surface.)
Chain of extra-cellular domain of recombinantly expressed RSV F protein (human Respiratory Syncytial Virus) (P03420 26-524): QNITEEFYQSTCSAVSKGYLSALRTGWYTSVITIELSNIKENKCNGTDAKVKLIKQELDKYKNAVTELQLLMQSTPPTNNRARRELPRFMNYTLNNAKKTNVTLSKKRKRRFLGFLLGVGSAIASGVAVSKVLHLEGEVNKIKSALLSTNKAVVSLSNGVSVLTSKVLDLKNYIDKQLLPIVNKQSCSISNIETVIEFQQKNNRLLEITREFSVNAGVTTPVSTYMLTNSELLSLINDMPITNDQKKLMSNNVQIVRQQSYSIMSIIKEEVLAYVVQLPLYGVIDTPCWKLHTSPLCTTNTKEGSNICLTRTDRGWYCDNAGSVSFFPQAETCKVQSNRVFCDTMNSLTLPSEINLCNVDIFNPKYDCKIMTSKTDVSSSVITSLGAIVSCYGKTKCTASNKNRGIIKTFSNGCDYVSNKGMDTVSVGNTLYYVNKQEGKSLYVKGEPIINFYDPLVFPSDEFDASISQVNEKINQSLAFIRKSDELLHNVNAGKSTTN

Turning to Numax™ (antibody), the Kd was 0.24 nM.

Regarding “SYNAGIS® brand of pavilizumab (antibody)”, the Kd amounted to 0.4 nM.

The term Kd denotes the free concentration of one partner at which half of the binding sites on the other are occupied at equilibrium, for simple one-to-one binding.
